The target of assay [1] is T1, human LAG-3-hFc (human, UniProt P18627 23-450).
T1 construct: also called human LAG3-Fc; Human LAG-3-Fc; not shown: human Fc
T1 sequence: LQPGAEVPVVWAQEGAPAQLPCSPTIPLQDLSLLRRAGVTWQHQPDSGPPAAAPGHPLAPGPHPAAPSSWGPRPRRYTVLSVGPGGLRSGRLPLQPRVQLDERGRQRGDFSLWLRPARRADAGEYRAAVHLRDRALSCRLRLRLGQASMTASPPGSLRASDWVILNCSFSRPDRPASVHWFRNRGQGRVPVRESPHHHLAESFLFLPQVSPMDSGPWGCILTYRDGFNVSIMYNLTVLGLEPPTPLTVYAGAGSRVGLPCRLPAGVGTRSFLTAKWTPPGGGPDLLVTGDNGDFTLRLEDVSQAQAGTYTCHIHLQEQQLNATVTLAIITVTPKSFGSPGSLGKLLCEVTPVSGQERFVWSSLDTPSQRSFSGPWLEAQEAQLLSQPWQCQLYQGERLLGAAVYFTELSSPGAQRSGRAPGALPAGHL
Description: flow cytometry competition: blockade of 40 nM human LAG-3-hFc binding to MHC class II on Daudi cells; PE goat anti-human IgG. The procedure:
A Nanobody dilution series was prepared in assay buffer: HBSS/2% FBS. Prior to the experiment, Fc receptors on the Daudi cells were blocked with human Fc block (BD Pharmingen, 564220) and 5 μg/mL goat IgG (Jackson ImmunoResearch, 005-000-003) for 30 minutes at 4° C. […] 1×10⁵ cells/well were seeded in V-bottom 96-well plates and resuspended in 100 μL/well of the Nanobody/ligand dilution. After 30 minutes incubation at 4° C., the cells were washed and resuspended in 100 μL/well PE-labeled Goat anti-human IgG (Southern Biotech, 2043-09). Samples were incubated for 15 minutes at 4° C., washed, and resuspended in 100 μL/well of 5 nM TOPRO3 (LifeTechnologies, T3606) solution before analysis on FACS CANTO II (BD).

Assay [2] has as its target T1, human LAG-3-hFc. Nature of the assay: SPR, Biacore T100; human LAG3-hFc captured on anti-human IgG(Fc), Nanobody as analyte; Langmuir with mass transport. Here is the method: Kinetic analysis of Nanobodies was performed by surface plasmon resonance (SPR) technology, using the Biacore T100 instrument (GE Healthcare). HBS-EP+(0.01 M HEPES pH 7.4, 0.15 M NaCl, 3 mM EDTA, 0.05% v/v Surfactant P20) was used as running buffer and the experiments were performed at 25° C. Two flow channels of a Series S Sensor Chip CM5 were activated with EDC (200 mM)/NHS (50 mM) and anti-Human IgG(Fc) (GE Healthcare, BR100839) was injected at 5 μg/ml in the supplied immobilization buffer (10 mM sodium acetate pH5.0) to render immobilization levels of approximately 2000 R U. After immobilization, surfaces were deactivated with 1M ethanolamine/HCl (pH 8.5). The flow rate during the sensor preparation was set on 5 μL/min.
Sensorgram processing and data analysis was performed with Biacore T100 Evaluation Software Version 2.0.4 (GE Healthcare). […] Processed curves were evaluated via fitting with the model ‘Langmuir with Mass Transport’.
A general note: SPR reads the build-up and loss of mass on a sensor chip optically.

The target in assay [3] is T2, human LAG-3 expressed on cells (human, UniProt P18627 23-525).
T2 construct: the transgene used on the cells is not tied to it by number; also called hLAG-3; 3A9.hLAG-3
T2 sequence: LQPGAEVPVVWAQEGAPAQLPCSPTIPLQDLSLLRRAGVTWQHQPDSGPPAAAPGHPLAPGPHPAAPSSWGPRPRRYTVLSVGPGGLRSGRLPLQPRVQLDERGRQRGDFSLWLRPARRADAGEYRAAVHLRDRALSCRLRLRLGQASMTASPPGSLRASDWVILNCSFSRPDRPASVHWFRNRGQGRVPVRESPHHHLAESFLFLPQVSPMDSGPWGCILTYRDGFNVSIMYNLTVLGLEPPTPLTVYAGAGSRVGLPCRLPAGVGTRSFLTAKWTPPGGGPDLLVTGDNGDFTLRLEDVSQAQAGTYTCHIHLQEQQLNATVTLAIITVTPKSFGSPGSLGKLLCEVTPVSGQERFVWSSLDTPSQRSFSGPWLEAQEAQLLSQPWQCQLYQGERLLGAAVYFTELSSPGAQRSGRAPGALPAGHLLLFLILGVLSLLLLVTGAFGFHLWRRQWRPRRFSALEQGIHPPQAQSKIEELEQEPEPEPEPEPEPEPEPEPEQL
Nature of the assay: flow cytometry on 3A9 cells expressing human LAG-3; anti-FLAG + PE goat anti-mouse. Here is the method:
(§1) Binding to cell-expressed human LAG-3 was evaluated on human LAG-3 over-expressing 3A9 cells. A Nanobody dilution series was prepared in assay buffer: PBS/10% FBS/0.05% sodium azide. 1×10⁵ cells/well were transferred to a 96-well V-bottom plate and resuspended in 100 μL Nanobody dilution. After 30 minutes incubation at 4° C., the cells were washed with 100 μL/well assay buffer and resuspended in 100 μL/well of 1 μg/ml anti-FLAG (Sigma, F1804). […] Samples were incubated for 30 minutes at 4° C., washed, and resuspended in 100 μL/well of 5 nM TOPRO3 (LifeTechnologies, T3606) solution before analysis on FACS CANTO II (BD).
In general terms: Flow cytometry measures light scatter and fluorescence of single cells or particles in a stream.

Assay [4] addresses T3, human PD-1 expressed on cells (human, UniProt Q15116 25-288).
T3 construct: the transgene used on the cells is not tied to it by number; also called hPD-1; CHO.hPD-1
Description: flow cytometry competition: blockade of human PD-L1-hFc binding to CHO-K1 cells expressing human PD-1; PE goat anti-human IgG. The procedure: (§2) Ligand competition assays were performed on human PD-1 over-expressing CHO cells. A Nanobody dilution series was prepared in assay buffer: PBS/10% FBS/0.05% sodium azide. […] 2×10⁴ cells/well were seeded in V-bottom 96-well plates and resuspended in 200 μL/well of the Nanobody/ligand dilution. After 90 minutes incubation at 4° C., the cells were washed with 100 μL/well assay buffer and resuspended in 100 μL/well PE-labeled Goat anti-human IgG (Southern Biotech, 2043-09). Samples were incubated for 30 minutes at 4° C., washed, and resuspended in 100 μL/well of 5 nM TOPRO3 (LifeTechnologies, T3606) solution before analysis on FACS CANTO II (BD).

For assay [5], the target named is T3, human PD-1 expressed on cells. Nature of the assay: flow cytometry on CHO-K1 cells expressing human PD-1; anti-FLAG + PE goat anti-mouse. The procedure:
as §1, with “PD-1” for “LAG-3”, “CHO” for “3A9”, “F1804) or anti-HIS (AbD Serotec, MCA 1396).” for “F1804).”

The target is the same in assay [6]. Nature of the assay: flow cytometry competition: blockade of human PD-L2-hFc binding to CHO-K1 cells expressing human PD-1; PE goat anti-human IgG. The procedure: as §2
The target of assay [7] is T4, human PD-1-hFc (human, UniProt Q15116 25-170).
T4 construct: also called hPD-1-hFc; hPD1-hFc; not shown: human Fc
T4 sequence (Q15116 25-170 limits assumed): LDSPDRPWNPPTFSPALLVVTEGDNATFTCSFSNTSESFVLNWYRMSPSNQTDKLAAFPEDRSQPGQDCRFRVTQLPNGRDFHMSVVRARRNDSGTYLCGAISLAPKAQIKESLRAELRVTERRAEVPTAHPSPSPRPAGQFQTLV
Description: SPR, Biacore T100; hPD-1-hFc immobilised on CM5 (303 RU), Nanobody as analyte; Langmuir with mass transport. The procedure: (§3) Kinetic analysis of the Nanobodies was performed by SPR technology, using the Biacore T100 instrument (GE Healthcare). HBS-EP+(0.01 M HEPES pH 7.4, 0.15 M NaCl, 3 mM EDTA, 0.05% v/v Surfactant P20) was used as running buffer and the experiments were performed at 25° C. Two flow channels of a Series S Sensor Chip CM5 were activated with EDC (200 mM)/NHS (50 mM). hPD-1-hFc was injected (4 times) at 5 μg/ml in suitable immobilization buffer (10 mM sodium acetate pH4.5) over one surface to render immobilization levels of 303 RU. After immobilization, surfaces were deactivated with 1M ethanolamine/HCl (pH 8.5). The flow rate during the sensor preparation was set on 5 μl/min.
(§4) After each cycle (i.e. before a new Nanobody injection step) the hPD1-hFc surfaces were regenerated with a 1 minute injection 10 mM Glycine pH1.5 at 45 μl/min. Sensorgram processing and data analysis was performed with Biacore T100 Evaluation Software Version 2.0.4 (GE Healthcare). Sensorgrams showing Nanobody binding were obtained after double referencing by subtracting 1) non-specific binding to reference flow channel and 2) HBS-EP+injection. Processed curves were evaluated via fitting with the model ‘Langmuir with Mass Transport’.

Assay [8] has as its target T4, human PD-1-hFc. Description: SPR, Biacore T100; hPD-1-hFc immobilised on CM5, Nanobody as analyte; Langmuir with mass transport. Here is the method: as §3, §4

T3 sequence (Q15116 25-288 limits assumed): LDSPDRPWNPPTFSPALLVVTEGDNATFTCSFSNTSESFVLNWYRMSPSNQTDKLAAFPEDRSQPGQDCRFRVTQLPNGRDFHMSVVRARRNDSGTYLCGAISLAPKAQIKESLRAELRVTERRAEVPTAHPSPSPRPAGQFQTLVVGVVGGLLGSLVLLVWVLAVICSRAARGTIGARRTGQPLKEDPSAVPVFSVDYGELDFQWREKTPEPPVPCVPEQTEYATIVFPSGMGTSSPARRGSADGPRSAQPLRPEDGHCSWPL

B1: F023700842 (F0237611B09(L11V, A14P, R41P, N43K, A62S, A74S, K83R, V89L)-FLAG3-HIS6) (VHH)
VHH: EVQLVESGGGVVQPGGSLRLSCAASGRTFSDYVMGWFRQAPGKEREFVAAISESGGRTHYADSVKGRFTISRDNSKNTLYLQMNSLRPEDTALYYCATTLLWWTSEYAPIKANDYDYWGQGTLVTVSS
notes: also called F023700842-FLAG3-HIS6
In the case of B1, the “IC50 (read off the curve)” value in the assay with human LAG-3-hFc [1] was roughly 30 nM. Moreover, in the assay with human LAG-3-hFc [2], the Kd (as a rule, the constant that tells how readily two partners part at equilibrium) turned out to be 21 nM; the koff (usually the first-order rate constant of dissociation) was found to be 0.019 s⁻¹; the kon (in general, a measure of how fast the partners come together) was 920000 M⁻¹ s⁻¹. Further, in assay [3], the EC50 (read off the curve) (usually the concentration giving half of the maximal effect) is roughly 2 nM.

B2: F0237611B09-FLAG3-HIS6 (VHH)
VHH: EVQLVESGGGLVQAGGSLRLSCAASGRTFSDYVMGWFRQARGNEREFVAAISESGGRTHYADAVKGRFTISRDNAKNTLYLQMNSLKPEDTAVYYCATTLLWWTSEYAPIKANDYDYWGQGTLVTVSS
notes: original monovalent anti-human LAG-3 Nanobody; also called F0237611B09-FLAG-His6
As for B2, in the assay with human LAG-3-hFc [1], the “IC50 (read off the curve)” value was roughly 20 nM. Besides, the “EC50 (read off the curve)” value in assay [3] was roughly 2 nM.

B3: F023700275 (1PD102C12(A14P, A74S, K83R)-FLAG3-HIS6) (VHH)
VHH: EVQLVESGGGLVQPGGSLRLSCAASGSIASIHAMGWFRQAPGKEREFVAVITWSGGITYYADSVKGRFTISRDNSKNTVYLQMNSLRPEDTAIYYCAGDKHQSSWYDYWGQGTLVTVSS
notes: monovalent anti-human PD-1 Nanobody, parent of F023700706
B3: the “IC50 (read off the curve)” value in assay [4] and in assay [6] was roughly 0.3 nM throughout. The “EC50 (read off the curve)” value in assay [5] was roughly 0.9 nM.

B4: F023701192 (1PD102C12 (E1D, L11V, A14P, W52aV, N73Q, A74S, K83R, I89L, W100aF)-HIS6) (VHH)
VHH: DVQLVESGGGVVQPGGSLRLSCAASGSIASIHAMGWFRQAPGKEREFVAVITVSGGITYYADSVKGRFTISRDQSKNTVYLQMNSLRPEDTALYYCAGDKHQSSFYDYWGQGTLVTVSS
notes: monovalent anti-human PD-1 Nanobody variant; not shown: C-terminal HIS6 tag
With B4, the “IC50 (read off the curve)” value in assay [4] was roughly 1 nM; in assay [6], roughly 0.9 nM. In addition, the Kd with human PD-1-hFc [7] and with human PD-1-hFc [8] was 1.3 nM in each case. The koff in the assay with human PD-1-hFc [7] and with human PD-1-hFc [8] was 0.0032 s⁻¹ each time. The kon in the assay with human PD-1-hFc [7] and in the assay with human PD-1-hFc [8] was 2.5e+06 M⁻¹ s⁻¹ each time.

B5: F023701190 (1PD102C12 (E1D, L11V, A14P, W52aV, A74S, K83R, I89L, W100aF)-HIS6) (VHH)
VHH: DVQLVESGGGVVQPGGSLRLSCAASGSIASIHAMGWFRQAPGKEREFVAVITVSGGITYYADSVKGRFTISRDNSKNTVYLQMNSLRPEDTALYYCAGDKHQSSFYDYWGQGTLVTVSS
notes: monovalent anti-human PD-1 Nanobody variant; also called Enhanced SO 1PD102C12 monomer; not shown: C-terminal HIS6 tag
In the case of B5, the “IC50 (read off the curve)” value was roughly 1 nM in assay [4] and roughly 0.9 nM in assay [6].

B6: F023700929 (1PD102C12 (L11V, A14P, A74S, K83R, I89L)-HIS6) (VHH)
VHH: EVQLVESGGGVVQPGGSLRLSCAASGSIASIHAMGWFRQAPGKEREFVAVITWSGGITYYADSVKGRFTISRDNSKNTVYLQMNSLRPEDTALYYCAGDKHQSSWYDYWGQGTLVTVSS
notes: not shown: C-terminal HIS6 tag
Regarding B6, the “IC50 (read off the curve)” value in assay [4] is roughly 1 nM. In the assay with human PD-1-hFc [7], this molecule gave a Kd of 0.29 nM, a koff of 0.00059 s⁻¹ and a kon of 2e+06 M⁻¹ s⁻¹. In addition, in assay [6], the “IC50 (read off the curve)” value is roughly 1 nM. In the assay with human PD-1-hFc [8], this molecule yielded a Kd of 0.29 nM, a koff of 0.00059 s⁻¹ and a kon of 2e+06 M⁻¹ s⁻¹.

B7: F023701193 (1PD102C12 (E1D, L11V, A14P, W52aV, N73P, A74S, K83R, I89L, W100aF)-HIS6) (VHH)
VHH: DVQLVESGGGVVQPGGSLRLSCAASGSIASIHAMGWFRQAPGKEREFVAVITVSGGITYYADSVKGRFTISRDPSKNTVYLQMNSLRPEDTALYYCAGDKHQSSFYDYWGQGTLVTVSS
notes: as for B4
As to B7, the “IC50 (read off the curve)” value in assay [4] is roughly 1 nM; in assay [6], roughly 0.9 nM. Besides, the Kd with human PD-1-hFc [7] and with human PD-1-hFc [8] was 2.4 nM in each case. For the same molecule, the koff with human PD-1-hFc [7] and with human PD-1-hFc [8] was 0.0075 s⁻¹ throughout. Besides, the kon with human PD-1-hFc [7] and with human PD-1-hFc [8] was 3.2e+06 M⁻¹ s⁻¹ in each case.
